# ± gives the uncertainty stated by the source.
# Experiment: protein stability index of a GFP-peptide fusion (yeast GPS) (PSI 1-4); higher = more stable; sorted into four equal gates, so the index is relative within each strain
# How it was run: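 Plasmids isolated from each sorting gate were PCR-amplified and Illumina-sequenced, and barcodes assigned the reads to strains. The gates, four of equal size, were set by GFP/Cherry fluorescence ratio on mid-log cultures in leucine-free medium. These cultures were yeast carrying a pooled library of tiled 17-residue yeast protein peptides fused downstream of GFP on a plasmid that also expresses Cherry. The protein stability index is the sum of every gate's read frequency times its gate number.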
Sequence,protein stability index (doa10∆),protein stability index (pdr5∆),protein stability index (san1∆),protein stability index (ubr1∆)
TKIKPFIKVVNYNHLLP [RPL27A],2.49 ± 0.072,2.35 ± 0.094,2.77 ± 0.093,2.64 ± 0.11
TKKISNFNSSLHKRQQF [YJL039C/NUP192],2.73 ± 0.13,2.79 ± 0.12,1.4 ± 0.18,1.6 ± 0.11
TKLKNAVQNESVSSPIE [QCR2],3.05 ± 0.11,3.1 ± 0.084,3.25 ± 0.094,3.05 ± 0.067
TKLRAFVYNKVNETEAI [YGR119C/NUP57],2.3 ± 0.084,2.69 ± 0.064,2.68 ± 0.061,2.59 ± 0.059
TKPSDLTIKDIVLGVKD [RPO21],2.51 ± 0.085,2.15 ± 0.1,1.95 ± 0.15,2.83 ± 0.044
TKPSLRKASCIWLLSYI [ECM29],1.75 ± 0.054,1.88 ± 0.051,1.86 ± 0.077,1.86 ± 0.038
TKQASSFSFLNRADGTG [YLR335W/NUP2],,,,1.45 ± 0.2
TKRLGTPESVKPANASH [RGR1],2.37 ± 0.08,2.63 ± 0.077,2.26 ± 0.11,2.76 ± 0.095
TKRWYKNAGLGFKTPKT [RPS11A],3.32 ± 0.096,3.42 ± 0.12,3.05 ± 0.11,3.5 ± 0.082
TKTEALLSDVVSTSSGA [YJL041W/NSP1],2.73 ± 0.13,3.1 ± 0.2,2.75 ± 0.15,
TKTVKRASKALIERYYP [RPS17A],,2.57 ± 0.21,,
TKYFEPTSTENNKKVVG [ECM29],2.87 ± 0.14,3.19 ± 0.17,2.82 ± 0.13,2.97 ± 0.062
TLEQKVNLENPIPIAVL [FAS1],1.35 ± 0.048,1.4 ± 0.041,1.57 ± 0.095,1.39 ± 0.028
TLGNALRYVIMKNPDVE [RPC19],2.93 ± 0.091,2.73 ± 0.059,2.46 ± 0.077,2.8 ± 0.055
TLLIAIRGSNRDLKPSN [YML103C/NUP188],1.92 ± 0.18,2.41 ± 0.13,2.52 ± 0.098,2.8 ± 0.087
TLLVIRRLHKVLRPFLL [SNF2],1.26 ± 0.12,1.34 ± 0.093,1.34 ± 0.16,1.09 ± 0.08
TLSFNFSQKANKTKAVD [YOR098C/NUP1],2.03 ± 0.085,1.55 ± 0.059,1.84 ± 0.1,1.71 ± 0.057
TLSKTTDSSALTYDRLE [PRE9],3.16 ± 0.1,2.99 ± 0.13,2.89 ± 0.1,2.94 ± 0.058
TLSVSHGINLQNKKNLK [SSN2],2.7 ± 0.062,2.62 ± 0.054,2.65 ± 0.077,2.78 ± 0.063
TLTDILEDELYHTNPGH [RPN4],3.04 ± 0.055,3.25 ± 0.049,3.1 ± 0.064,3.21 ± 0.043
TLYSVKSKEDMKQLKFF [SNU114],3.28 ± 0.17,3.33 ± 0.13,3.17 ± 0.083,3.1 ± 0.087
TNAKIPQFDSTQPKSSS [SSN3],3.03 ± 0.042,3.01 ± 0.044,3.09 ± 0.039,2.98 ± 0.032
TNELWARLAILKERAKN [YGR119C/NUP57],3.26 ± 0.13,2.75 ± 0.2,,3.58 ± 0.13
TNGGLFGSGTQNNNTLG [YGR119C/NUP57],3.25 ± 0.11,2.91 ± 0.091,3.02 ± 0.069,3.08 ± 0.069
TNKDIICQIISSTITGD [RPL5],2.6 ± 0.055,2.13 ± 0.057,2.94 ± 0.1,2.24 ± 0.055
TNKSKRPSITEAMMLKE [MED1],2.91 ± 0.12,3.03 ± 0.087,2.89 ± 0.094,3.03 ± 0.084
TNLKMKRKWSYVLYAKI [RRP43],1.71 ± 0.058,2.37 ± 0.042,1.75 ± 0.16,2.09 ± 0.15

# Reference: the supplement of paper PMC9732359
